In US20070253950A1 (Pfizer, published 2007):

Molecular target: T1, human RAGE-Fc fusion protein (human, UniProt Q15109 23-344)
T1 construct: amino acids 1-344 of human RAGE appended to the Fc domain of human IgG; also called hRAGE-Fc; huRAGE-Fc
Experiment: ligand competition ELISA: HMGB1 coated, hRAGE-Fc pre-mixed with antibody, bound hRAGE-Fc detected with anti-huIgG-HRP; blocked ligand HMGB1
Method: Wells were washed and blocked as described above and exposed to 100 μl of pre-incubated mixtures of RAGE-Fc or TrkB-Fc (a non-specific Fc control), at 0.1 μg/ml, plus various forms of the indicated antibody preparation (dilutions of immune sera, hybridoma supernatants or purified antibodies) for 1 hour at room temperature.

- IC50 (read off the curve): ~0.1 µg/mL
B1: XT-H2 (antibody, V domains shown)
VH: QVQLQQSGAELAKPGASVKMSCKASGYTFTTYWMHWVKQRPGQGLYWIGYINPSTGYTEYNQKFKDKATLTADKSSSTAYMQLSSLTSEDSAVYYCARWAGYTIDYWGQGTSVTVSS
VL: DVVLTQTPLSLPVNIGDQASISCKSTKSLLNSDGFTYLDWYLQKPGQSPQLLIYLVSDRFSGVPDRFSGSGSGTDFTLTISRVEAEDLGVYYCFQSNSLPLTFGSGTKLEIK
notes: also called 1hRAGEP3/16
